Results on three molecules are retold here after PMC10201424, “Biochemical characterisation of Mer3 helicase interactions and the protection of meiotic recombination intermediates” (Nucleic Acids Research, 2022).

What all share (details): both partners purified
For experiment [1], the target named is T1, Mer3-Strep (full-length S. cerevisiae Mer3 with C-terminal 2xStrep-II tag) (S. cerevisiae, UniProt P51979 1-1187, phosphorylated in insect cells; high-confidence sites S17, S80, T100, S398, S958, T1092).
T1 sequence (looked up): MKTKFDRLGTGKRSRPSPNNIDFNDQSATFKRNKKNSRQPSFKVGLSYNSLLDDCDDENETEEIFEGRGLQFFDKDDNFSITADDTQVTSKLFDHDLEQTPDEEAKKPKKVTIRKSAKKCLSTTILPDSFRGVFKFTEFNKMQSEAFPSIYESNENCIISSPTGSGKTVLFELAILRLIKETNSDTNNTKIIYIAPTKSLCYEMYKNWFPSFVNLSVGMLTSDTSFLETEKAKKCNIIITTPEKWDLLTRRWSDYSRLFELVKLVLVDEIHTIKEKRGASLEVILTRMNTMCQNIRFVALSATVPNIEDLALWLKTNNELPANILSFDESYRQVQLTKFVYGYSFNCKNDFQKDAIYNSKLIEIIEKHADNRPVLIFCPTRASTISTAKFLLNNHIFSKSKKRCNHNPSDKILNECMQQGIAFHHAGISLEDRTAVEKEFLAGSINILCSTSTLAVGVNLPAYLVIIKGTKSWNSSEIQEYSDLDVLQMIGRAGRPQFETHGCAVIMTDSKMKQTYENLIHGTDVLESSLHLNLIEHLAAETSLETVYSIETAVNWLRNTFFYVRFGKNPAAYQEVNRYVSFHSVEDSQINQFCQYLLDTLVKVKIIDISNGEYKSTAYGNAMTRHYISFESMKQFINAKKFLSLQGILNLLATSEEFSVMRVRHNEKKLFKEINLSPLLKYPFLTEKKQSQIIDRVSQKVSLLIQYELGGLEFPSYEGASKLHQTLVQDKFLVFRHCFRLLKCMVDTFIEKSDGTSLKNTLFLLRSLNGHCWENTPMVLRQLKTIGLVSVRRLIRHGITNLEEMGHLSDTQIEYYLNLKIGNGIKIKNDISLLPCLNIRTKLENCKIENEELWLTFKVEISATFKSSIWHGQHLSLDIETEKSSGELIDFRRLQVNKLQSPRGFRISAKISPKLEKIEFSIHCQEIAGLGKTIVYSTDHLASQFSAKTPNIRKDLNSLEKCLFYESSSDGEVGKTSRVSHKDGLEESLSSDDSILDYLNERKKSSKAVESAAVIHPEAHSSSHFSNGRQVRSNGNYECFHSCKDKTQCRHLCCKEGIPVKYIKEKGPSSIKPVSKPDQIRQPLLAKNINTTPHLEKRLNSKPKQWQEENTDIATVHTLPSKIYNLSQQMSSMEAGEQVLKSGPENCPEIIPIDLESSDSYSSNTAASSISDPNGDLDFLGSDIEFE
Briefly: pull-down; Mer3-Strep (0.7 μM) on streptavidin magnetic beads, His-Dmc1 3.2 μM or Rad51 2.8 μM; 25 mM HEPES pH 7.5, 5% glycerol, 100 mM NaCl, 1 mM TCEP, 0.1% Tween-20; stained gel.

Experiment [2] addresses T2, Top3/Rmi1 complex (as used in MST and XL-MS) (S. cerevisiae, UniProt P13099 1-656; Q02685 1-241).
T2 construct: Top3 (type IA topoisomerase), S. cerevisiae, from SK1 strain genomic DNA; untagged; Rmi1, S. cerevisiae, from SK1 strain genomic DNA; The methods describe a GST-tagged and an untagged (3C protease cleaved) preparation; source: Hi5 insect cells (co-expressed from pBIG1a), purified
T2 sequence (looked up) 1: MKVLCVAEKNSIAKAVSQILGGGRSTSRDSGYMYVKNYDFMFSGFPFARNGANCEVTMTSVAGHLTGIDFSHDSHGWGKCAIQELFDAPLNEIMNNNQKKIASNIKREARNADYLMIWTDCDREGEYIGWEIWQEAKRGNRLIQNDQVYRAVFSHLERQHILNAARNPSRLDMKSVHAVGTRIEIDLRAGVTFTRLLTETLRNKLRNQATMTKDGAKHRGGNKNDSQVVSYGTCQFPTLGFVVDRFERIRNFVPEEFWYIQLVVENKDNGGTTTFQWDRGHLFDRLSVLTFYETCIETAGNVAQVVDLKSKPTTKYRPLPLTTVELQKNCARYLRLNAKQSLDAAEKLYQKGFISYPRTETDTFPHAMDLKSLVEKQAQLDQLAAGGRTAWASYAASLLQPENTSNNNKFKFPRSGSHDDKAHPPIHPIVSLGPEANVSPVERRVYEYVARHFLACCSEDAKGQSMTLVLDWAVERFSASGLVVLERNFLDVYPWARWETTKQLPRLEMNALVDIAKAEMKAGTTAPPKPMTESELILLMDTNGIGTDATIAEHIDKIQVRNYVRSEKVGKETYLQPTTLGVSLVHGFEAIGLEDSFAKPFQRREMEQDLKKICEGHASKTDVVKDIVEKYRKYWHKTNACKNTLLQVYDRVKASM
T2 sequence (looked up) 2: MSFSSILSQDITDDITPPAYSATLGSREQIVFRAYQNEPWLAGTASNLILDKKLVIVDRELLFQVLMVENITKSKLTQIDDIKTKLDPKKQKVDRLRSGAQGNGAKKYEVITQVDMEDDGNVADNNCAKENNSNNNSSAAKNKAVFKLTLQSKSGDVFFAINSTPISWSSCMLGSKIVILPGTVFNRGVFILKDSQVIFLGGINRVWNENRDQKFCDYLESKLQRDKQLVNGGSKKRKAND
Briefly: MST; 30 nM RED-NHS labelled Sgs1(1–605), Top3–Rmi1 titrated; 50 mM Tris–HCl pH 7.4, 150 mM NaCl, 10 mM MgCl2, 0.05% Tween-20; 25°C; triplicates.

The target in another experiment is T3, Top3/GST-Rmi1 complex (S. cerevisiae, UniProt P13099 1-656; Q02685 1-241).
T3 construct: Top3 (type IA topoisomerase), S. cerevisiae, from SK1 strain genomic DNA; untagged; Rmi1, S. cerevisiae, from SK1 strain genomic DNA; also called GST-tagged Top3–Rmi1; GST-Rmi1/Top3; source: Hi5 insect cells (co-expressed from pBIG1a), purified (GSTrap, ResourceS, SEC); not shown: GST, N-terminal, kept
T3 sequence (looked up) 1: T2 sequence (looked up) 1
T3 sequence (looked up) 2: T2 sequence (looked up) 2
Nature of the experiment: pull-down; competition: Top3/GST-Rmi1 (1 μM) on glutathione beads, Mer3-Strep 1 μM, His-Sgs1(1–107) 8 or 25 μM; 25 mM HEPES pH 7.5, 5% glycerol, 100 mM NaCl, 1 mM TCEP, 0.1% Tween-20; Coomassie.

B1: His-Dmc1 (natural protein, yeast, UniProt P25453 1-334, looked up)
chain: MSVTGTEIDSDTAKNILSVDELQNYGINASDLQKLKSGGIYTVNTVLSTTRRHLCKIKGLSEVKVEKIKEAAGKIIQVGFIPATVQLDIRQRVYSLSTGSKQLDSILGGGIMTMSITEVFGEFRCGKTQMSHTLCVTTQLPREMGGGEGKVAYIDTEGTFRPERIKQIAEGYELDPESCLANVSYARALNSEHQMELVEQLGEELSSGDYRLIVVDSIMANFRVDYCGRGELSERQQKLNQHLFKLNRLAEEFNVAVFLTNQVQSDPGASALFASADGRKPIGGHVLAHASATRILLRKGRGDERVAKLQDSPDMPEKECVYVIGEKGITDSSD
As for B1, the binding result in experiment [1] is reported as “binds”.

B2: Sgs1(1–605) (domain or fragment, S. cerevisiae, UniProt P35187 1-605, looked up)
chain: MVTKPSHNLRREHKWLKETATLQEDKDFVFQAIQKHIANKRPKTNSPPTTPSKDECGPGTTNFITSIPASGPTNTATKQHEVMQTLSNDTEWLSYTATSNQYADVPMVDIPASTSVVSNPRTPNGSKTHNFNTFRPHMASSLVENDSSRNLGSRNNNKSVIDNSSIGKQLENDIKLEVIRLQGSLIMALKEQSKLLLQKCSIIESTSLSEDAKRLQLSRDIRPQLSNMSIRIDSLEKEIIKAKKDGMSKDQSKGRSQVSSQDDNIISSILPSPLEYNTSSRNSNLTSTTATTVTKALAITGAKQNITNNTGKNSNNDSNNDDLIQVLDDEDDIDCDPPVILKEGAPHSPAFPHLHMTSEEQDELTRRRNMRSREPVNYRIPDRDDPFDYVMGKSLRDDYPDVEREEDELTMEAEDDAHSSYMTTRDEEKEENELLNQSDFDFVVNDDLDPTQDTDYHDNMDVSANIQESSQEGDTRSTITLSQNKNVQVILSSPTAQSVPSNGQNQIGVEHIDLLEDDLEKDAILDDSMSFSFGRQHMPMSHSDLELIDSEKENEDFEEDNNNNGIEYLSDSDLERFDEERENRTQVADIQELDNDLKIITERKL
notes: Sgs1 helicase, S. cerevisiae, from SK1 strain genomic DNA, residues 1-605; For MST the fragment was labelled with RED-NHS dye; also called untagged Sgs1(1–605); N-terminal fragment of Sgs1; source: E. coli BL21 STAR, purified (MBPtrap, ResourceQ, 3C cleavage, SEC); not shown: His6, N-terminal, cleaved; MBP, N-terminal, cleaved
On to B2, for which, in experiment [2], the Kd (in general, the equilibrium constant for the complex coming apart) turned out to be 478 ± 205 nM.

B3: His-tagged Sgs1(1–107) (domain or fragment, S. cerevisiae, UniProt P35187 1-107, looked up)
chain: MVTKPSHNLRREHKWLKETATLQEDKDFVFQAIQKHIANKRPKTNSPPTTPSKDECGPGTTNFITSIPASGPTNTATKQHEVMQTLSNDTEWLSYTATSNQYADVPM
notes: also called shorter fragment of Sgs1; source: E. coli BL21 STAR, purified (Ni-NTA, ResourceQ, SEC); not shown: His6, N-terminal, kept
Turning to B3, the binding result with Top3/GST-Rmi1 complex is “binds”.
